Data on 2 molecules can be found in patent US20120156198A1 (Hoffmann-La Roche, published 2012).

For test [1], the target named is T1, human IL-18Rα/IL-18Rβ on transfected HEK293 cells (human, UniProt O95256 20-599).
T1 construct: whole, on cells; also called human IL-18Ralpha+IL-18Rβ subunits
T1 sequence 1: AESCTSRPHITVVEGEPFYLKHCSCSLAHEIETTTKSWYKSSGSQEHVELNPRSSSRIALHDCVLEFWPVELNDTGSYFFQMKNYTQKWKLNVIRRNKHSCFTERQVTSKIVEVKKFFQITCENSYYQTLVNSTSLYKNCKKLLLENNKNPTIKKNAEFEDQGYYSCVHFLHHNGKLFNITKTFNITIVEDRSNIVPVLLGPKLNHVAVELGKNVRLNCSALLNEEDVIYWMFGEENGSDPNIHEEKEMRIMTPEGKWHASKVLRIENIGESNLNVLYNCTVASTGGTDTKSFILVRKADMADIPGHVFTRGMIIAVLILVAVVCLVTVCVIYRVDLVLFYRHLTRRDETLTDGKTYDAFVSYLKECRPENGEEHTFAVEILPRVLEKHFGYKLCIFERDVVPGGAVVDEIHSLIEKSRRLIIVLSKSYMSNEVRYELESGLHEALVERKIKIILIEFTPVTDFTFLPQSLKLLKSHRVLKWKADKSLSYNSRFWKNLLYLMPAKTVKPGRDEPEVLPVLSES
T1 sequence 2: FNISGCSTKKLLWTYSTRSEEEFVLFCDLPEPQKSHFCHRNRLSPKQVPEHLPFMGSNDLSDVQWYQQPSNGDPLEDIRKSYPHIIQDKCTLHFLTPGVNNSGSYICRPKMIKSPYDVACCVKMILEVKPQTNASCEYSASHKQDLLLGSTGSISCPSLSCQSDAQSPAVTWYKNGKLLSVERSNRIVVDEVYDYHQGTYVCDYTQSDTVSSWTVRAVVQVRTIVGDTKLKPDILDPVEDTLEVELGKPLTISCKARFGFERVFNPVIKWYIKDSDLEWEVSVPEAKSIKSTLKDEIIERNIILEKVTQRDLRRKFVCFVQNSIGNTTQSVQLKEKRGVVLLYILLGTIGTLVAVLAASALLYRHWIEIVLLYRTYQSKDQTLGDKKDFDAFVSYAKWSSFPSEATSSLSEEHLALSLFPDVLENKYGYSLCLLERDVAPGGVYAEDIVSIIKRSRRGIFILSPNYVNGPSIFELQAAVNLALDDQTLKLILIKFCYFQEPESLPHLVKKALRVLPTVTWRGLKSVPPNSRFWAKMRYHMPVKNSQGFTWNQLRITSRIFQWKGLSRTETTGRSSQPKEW
The test is described as follows: FACS on transfected HEK293 cells, antibody 1 µg/ml. Here is the method:
10⁶ HEK293 cells were transfected with a plasmid expressing human IL-18Ralpha+IL-18Rβ. Transfected cells were incubated for 1 day. 1×10⁵ cells were incubated on ice in PBS-buffer+2% FCS and stained with an IL-18Rα antibody (1 μg/ml). As secondary antibody anti-mouse IgG1-PE from R&D Systems (F0102B) was added in 1:20 dilution and as isotype control mouse IgG1 from BD Pharmingen (557273) was used at a concentration of 1 μg/ml.

The target in test [2] is T2, recombinant human IL-18Rα Fc chimera (R&D Systems, Cat. No. 816-LR) (human, UniProt Q13478 19-329).
T2 construct: Bought protein; also called hIL-18Rα (hFc-chimera R&D-Systems 816-LR); recombinant human IL-18Rα-Fc fusion protein; not shown: human Fc of the commercial chimera
T2 sequence: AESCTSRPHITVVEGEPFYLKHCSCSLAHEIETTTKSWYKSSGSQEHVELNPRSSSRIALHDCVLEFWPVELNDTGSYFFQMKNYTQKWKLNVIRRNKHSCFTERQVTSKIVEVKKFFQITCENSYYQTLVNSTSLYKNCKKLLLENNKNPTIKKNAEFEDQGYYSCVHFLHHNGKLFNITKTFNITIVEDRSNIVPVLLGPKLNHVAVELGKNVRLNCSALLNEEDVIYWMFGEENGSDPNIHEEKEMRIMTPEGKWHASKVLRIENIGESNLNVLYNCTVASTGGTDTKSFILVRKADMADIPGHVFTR
Briefly: SPR (BIACORE), 37°C, antibody captured, hIL-18Rα hFc chimera in solution. How it is done:
Coupling: amine coupling Buffer: 1×PBS (10×PBS, Ambion cat. AM9625), pH 7.4, 37° C. […] Association was measured by a hIL-18Rα-injection of 1.5 minutes at 37° C.; dissociation was measured by washing the chip surface with buffer for 10 minutes at 37° C. For calculation of apparent KD and other kinetic parameters the Langmuir 1:1 model was used.

The target of test [3] is T2, recombinant human IL-18Rα Fc chimera …. Briefly: competition ELISA: inhibition of biotinylated IL-18 (+IL-18Rβ) binding to captured IL-18Rα Fc chimera. Here is the method: The test was performed on 384 well microtiter plates at room temperature (RT). After each incubation step plates were washed 3 times with PBST (Phosphate Buffered Saline Tween®-20). At the beginning, plates were coated with 0.5 μg/ml goat anti-human IgG Fc fragment (Jackson 1 mm. Res., US, Cat. No. 109-006-170) for at least 2 hours (h). Thereafter the wells were blocked with PBS supplemented with 0.1% Tween®-20 and 2% BSA (Roche Diagnostics GmbH, DE) for 1 h. 0.2 μg/ml of recombinant human IL-18Rα Fc chimera (R&D Systems, UK, Cat. No. 816-LR) was captured for 1 h. Dilutions of purified antibodies in PBS with 0.5% BSA and 0.05% Tween®-20 were incubated with the receptor protein for 1 h. Biotinylated human IL-18 (MBL International, US, Cat. No. B003-5) and 0.2 μg/ml IL-18R13 (R&D Systems, UK, Cat. No. 118-AP) were added for an additional hour to build up the trimeric complex. IL-18 was biotinylated with Sulfo-NHS-LC-Biotin (Thermo Scientific Pierce, US, Cat. No. 21327) according to the manufacturer's protocol and purified using Zeba™ Desalt Spin Column (Thermo Scientific Pierce, US, Cat. No. 89889). Binding of the biotinylated IL-18 to the complex was detected with 1:2000 diluted streptavidin HRP (Roche Diagnostics GmbH, DE, Cat. No. 11089153001). […] Absorbance was measured at 370 nm. […]
On the technique in general: ELISA stands for enzyme-linked immunosorbent assay.

Values joined by “and” are separate entries in the source; they are usually repeats but may differ in a detail not shown here. Identical values can stand only once.

B1: Mab 1G12 (antibody, V domains shown)
VH: QVQLQQPGAELVKPGASVRMSCKTSDYTFTSNWMHWVKQRPGQGLEWIGTIDPSDSYTYYNQKFKGRATLTVDTSSSTAYMQLSSLTSEDSAVYYCTTSGDYDADRYFDVWGAGTTVTVSS
VL: DIVLTQSPASLGVSLGQRATISCRASKSVSTSGDSYMHWYQQKPGQSPKLLIYLASNLESGVPARFSGSGSGTDFTLNIHPVEEEDAATYYCQQSRELPLSFGAGTKLELK
notes: Monoclonal antibody from immunized NMRI mice; detected with anti-mouse IgG1-PE / anti-mouse IgG; also called F20.1G12; monoclonal antibody 1G12
For orientation: koff means a measure of how fast the partners let go of each other. The term kon denotes a measure of how fast the partners come together. Broadly, the IC50 is the midpoint of a concentration-inhibition curve. Regarding B1, the binding result in test [1] is “binds”. Also, in test [2], the koff worked out at 0.0002 s⁻¹, the kon amounted to 8.2e+06 M⁻¹ s⁻¹ and the “t1/2” value stood at 0.967 h. The IC50 in test [3] is 0.022 µg/mL and 0.15 nM.

B2: Mab 2D11 (antibody, V domains shown)
VH: QVQLQQPGAELVKPGASVKMSCKASDYTFTSNWMHWVKQRPGQGLEWIGTIDPSDSYTYYNQKFKGKATLTVDTSSSTAYMHLSSLTSEDSAVYYCTTSGDYDADRYFDVWGAGTTVTVSS
VL: DIVLTQSPASLGVSLGQRATISCRASKSVSTSGDSYMHWYQQKPGQSPKLLIYLASNLESGVPARFSGSGSGTDFTLNIHPVEEEDAATYYCQQSRELPLSFGAGTKLELK
notes: Monoclonal antibody from immunized NMRI mice; detected with anti-mouse IgG1-PE / anti-mouse IgG; also called F20.2D11
Take B2: the binding result in test [1] was “binds”. In test [2], the koff is 0.00019 s⁻¹, the kon is 7e+06 M⁻¹ s⁻¹ and the “t1/2” value worked out at 1.03 h. For the same molecule, the IC50 in test [3] is 0.029 µg/mL and 0.19 nM.
